Assay results published in the supplement of paper PMC12042874.
± gives the uncertainty stated by the source.

Assay: amyloid nucleation score (Sup35N fusion, yeast selection) (log enrichment); library NNK3; higher = more nucleation; inactive = no reads after selection
Summary of the method: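 DiMSum was used to calculate nucleation scores as log enrichment of output over input reads, centred on the mode score of non-aggregating sequences. Sequences with fewer than 100 input reads were not scored. Input and output came from Illumina sequencing of plasmid inserts in psi-negative yeast expressing peptides of 20 random codons fused to Sup35N, induced 24 hours with 100 μM copper sulfate and then grown 7 days at 30°C on medium lacking adenine and uracil.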

| Substance | amyloid nucleation score |
| --- | --- |
| TLCLQKHPSFGDYIFG | inactive |
| TLCMVQRSRVVSLLSVGRIL | -0.223 ± 0.55 |
| TLCQREPG | 0.209 ± 0.71 |
| TLDVR | inactive |
| TLFADNAVQIVLERSLRGCG | inactive |
| TLFQSFRELLRNGVFCLRTM | inactive |
| TLGDGRPLCLREEWEGPVTC | inactive |
| TLGMLHRNWYYLLF | inactive |
| TLIFRLYLRRNCNAVFCFVV | 0.084 ± 0.56 |
| TLLLIVDNGVNPSLKEMMLL | inactive |
| TLLLMSWHFGYMRAQF | 3.14 ± 0.05 |
| TLLTMTDFAIKFSHKQPGYV | inactive |
| TLMYFILYYIGLYPE | inactive |
| TLNIRCRRFVFVWDATNSV | 2.88 ± 0.064 |
| TLRNGQMTIGYCSKGISEVG | inactive |
| TLSCSDFTVLGTCDAVEGIN | inactive |
| TLSSKDVYMFLDS | inactive |
| TLTLAFARGDAYPSIARLV | inactive |
| TLVLVTRQLSFCRMDSRIEF | inactive |
| TLYFFKYFWMFVVMCKINKA | inactive |
| TMAYGAPLPHSTSYYITIMS | inactive |
| TMCKRLVVTYQLAYWRVSV | inactive |
| TMHGAQFCD | inactive |

| Substance | amyloid nucleation score |
| --- | --- |
| TMQEGRLSSWYSTVFFS | -0.073 ± 0.43 |
| TMSGWFNGCVYGVSAIHSSD | inactive |
| TMVICLSLLRNMILHF | inactive |
| TNDAGHVWYSLCLRIFNTNV | inactive |
| TNDLYEFVPRAVILTSICLL | inactive |
| TNGKPFYFPLAVMMSG | inactive |
| TNRVIVSMRLYVMDLYYCRT | inactive |
| TNYWNHVVYVTGNVCDP | inactive |
| TPKWILMERNTSRGWATSA | inactive |
| TPLADN | -0.224 ± 0.73 |
| TPRFMVGAVATEGAHIFLRV | inactive |
| TPVMRSVNMMVLKTI | inactive |
| TPWSYASLVLSVQCFGRLIM | inactive |
| TQFIELS | 0.199 ± 0.32 |
| TQRICRWLMVVWCDGRETHE | 0.403 ± 0.35 |
| TRFTACGYRKSCYWWIVF | inactive |
| TRHIGVGRY | inactive |
| TRHLMLVLSWFLHRKNISRG | inactive |
| TRIGSTEKTEQSVWD | -0.198 ± 0.75 |
| TRILGYIFGAVSIVWLGVER | inactive |
| TRLKFTLDWELM | 1.06 ± 0.098 |
| TRLLWSAEFGEGNDMTSLKF | 0.073 ± 0.87 |
| TRMWYGLLAENGCAYLGCNW | inactive |

| Substance | amyloid nucleation score |
| --- | --- |
| TRRPAQFVGPI | 0.645 ± 0.16 |
| TRSIVY | inactive |
| TRVHWHR | 1.63 ± 0.1 |
| TSAMSYFGDIYWCRKFRRVG | inactive |
| TSCQLWETIIKMLDHARTGA | inactive |
| TSDIFTSRYILAIDPRMNWV | inactive |
| TSINFSMAIDLRSHQLERTV | 0.479 ± 0.31 |
| TSLLILRCSGE | inactive |
| TSLVFLLGLSMFM | inactive |
| TSNIHY | inactive |
| TSNTGVSVSRFTFSVDRSVG | inactive |
| TSTELFRSGSVLRKPRMSSA | -0.255 ± 1.1 |
| TSTSIVSYGTWFSGFVLNVS | 2.29 ± 0.076 |
| TSYNCCVVHSVRTAIFARG | inactive |
| TSYVEVGFLVSKYQTWWAVN | inactive |
| TTCCRFYREIKFFRIS | inactive |
| TTGPYLSATEHTVGHLR | inactive |
| TTILLTFDTGTIS | inactive |
| TTLGHTPPVCFSDPWAQARA | inactive |
| TTLVGHASPVKAMTGTFTWH | inactive |
| TTMVIRNAMCNILNVVRKRR | 0.203 ± 0.33 |
| TTSRNRIGRGLCGLAS | -0.115 ± 0.48 |
| TTVMLTKLYMFEGPNRFTAL | 0.961 ± 0.084 |

| Substance | amyloid nucleation score |
| --- | --- |
| TVARMRFSTMTRDAQCVGRL | 0.107 ± 0.9 |
| TVCVWSVKVMP | -0.492 ± 0.66 |
| TVHKVSGKDQGWMYGHMLFC | inactive |
| TVLFEIYMNEVMNGFLICST | inactive |
| TVLLYLNDMVNNNFGFEGSF | 0.647 ± 0.34 |
| TVLVGDMVVR | inactive |
| TVLYWRLRQMMRFRLFSSNW | inactive |
| TVMDVLCECYMIVFRG | 0.875 ± 0.13 |
| TVMLWAWEGRWYVRFVSPDR | inactive |
| TVMPIYQCSIGVKFSCDSAK | 1.53 ± 0.072 |
| TVNPMIVDPCNW | inactive |
| TVPIMNVPD | -0.428 ± 0.8 |
| TVSTE | inactive |
| TVSTNDFSL | -0.61 ± 0.9 |
| TVTGFTCNGCFHAVNSVVLT | 0.002 ± 0.8 |
| TVTHLFGHRVGMSLVFNSTY | inactive |
| TVTVQYTG | inactive |
| TVTWFDINCMVGFLY | 0.431 ± 0.68 |
| TVVDLLVRYSAIGSCVFSVT | inactive |
| TVYIAYTCVAVRSHSEHLFD | inactive |
| TVYSTVSRDMNDKHFAGSTG | inactive |
| TVYYTLFATIWMLGVFFLNN | inactive |
| TWIMALLMILFNKVFVSSTR | inactive |

| Substance | amyloid nucleation score |
| --- | --- |
| TWRYWFKLESYNVYWRLLPA | -0.582 ± 1 |
| TYEEGRRQCSRAPMDSYVQS | inactive |
| TYEST | inactive |
| TYFRHYRKRSRSTSDLYLRL | inactive |
| TYGNENSSLILSCTCYIMLS | 2.41 ± 0.082 |
| TYNRHSFLA | inactive |
| TYRCYELVGDTVC | inactive |
| TYRRFMDNNGVIILILPNER | 1.74 ± 0.072 |
| TYTSESWVHLVKYGSLNELE | inactive |
| TYYTSRYL | inactive |
| VACITLCNIVQSIQMSIIMK | 1.45 ± 0.061 |
| VAGLSRHIRIFHYYHSRARF | inactive |
| VALLDSHGKWFMLGQFLNLK | inactive |
| VALVVHSLR | inactive |
| VCGDRKIFNHADVVYRMGRS | inactive |
| VCGILAISGLLT | inactive |
| VCIWSIETNVCSGCVKIKGF | inactive |
| VCLKVQWDYCIRLWVGMSYD | inactive |
| VCLLIRPID | inactive |
| VCMEMLEHIMIWFNSVDT | inactive |
| VCNYEVVAVIRDE | inactive |
| VCPVERSY | inactive |
| VCSVFLLLCANRLRVGGNYI | inactive |

| Substance | amyloid nucleation score |
| --- | --- |
| VCSYSMISHSAKWFVLILEW | inactive |
| VCTYNLAFGYFGVVWLTFVV | -0.519 ± 0.82 |
| VCVKYAMTPVWSAGAARFHK | inactive |
| VCWSYNSNL | inactive |
| VCYPHLYWMDPGWVS | inactive |
| VDEIWMGGLFCILYVSEVHK | inactive |
| VDLAIMLVDLLGHSKMYQTG | inactive |
| VDLRSLSPGYIDFTVISPLL | -0.952 ± 0.83 |
| VDMSELVWIISPEVHTVSCS | inactive |
| VDNCYDVITSLILSKYVLTL | inactive |
| VDSLFSGKNYELECKFDSWI | inactive |
| VDSSGLV | inactive |
| VDVDCYLLSKNM | inactive |
| VDVLER | inactive |
| VDYFW | inactive |
| VEFSPMFHQGVTM | inactive |
| VEGCKEGVRVYHLTFESFVI | inactive |
| VENGCGAT | inactive |
| VESCRKDTYNSWFFDCLGDR | inactive |
| VESLSVSAAL | inactive |
| VFAISV | inactive |
| VFAMLLDMFDCARQWPAIPL | inactive |
| VFCHTAIL | inactive |

| Substance | amyloid nucleation score |
| --- | --- |
| VFCKNLNYALRMPSKWGLYT | inactive |
| VFDCYHRTGVMETVCWNVFG | inactive |
| VFEVVYV | inactive |
| VFFFMELEYSYFEY | inactive |
| VFFIAAFLSTCMR | inactive |
| VFRTSLLKSYFGFNMKCDNY | 0.039 ± 0.26 |
| VFSIKIYKPKSSFHDRFYSV | inactive |
| VFVDLPRARG | 0.499 ± 0.32 |
| VFVDYCNKYGEFVSGTAQVS | inactive |
| VFVFLPSWDISYDDPRGWSV | 0.241 ± 0.19 |
| VFWYKYVFSCNIIQGLLRMK | inactive |
| VFYFDSFRICSYVVLYGHMA | 0.601 ± 0.28 |
| VGAYYGMFNSLMSFLQWISQ | 0.733 ± 0.2 |
| VGDVFSKRCHMRLFMNSLER | inactive |
| VGELIGLGSLWGMEINY | inactive |
| VGETWNSVACVLTQLWLTCE | -0.014 ± 0.26 |
| VGKYAGCCLKRPSLDAMGHV | inactive |
| VGLFASPDRRYRMIAFVPGL | inactive |
| VGLVMNCNKFYVLWFDQIGK | 2.27 ± 0.068 |
| VGMGLAKDVR | inactive |
| VGPALNVVSWELV | inactive |
| VGQCFNELVRFNRSGISRLV | inactive |
